{"source": "patent US20190241648A1", "about": "(STATEN BIOTECHNOLOGY B V, published 2019)", "binders": {"B1": {"name": "anti-ApoC3 antibody 14C7 (antibody, V domains shown)", "VH": "QVQVQESGPGLVKPSQTLSLTCTVSGGSITTNSYYWSWIRQPPGKGLEWMGAIDYSGDTYYSPSLKSRTSISRDTSKNQFTLQLTSVTPEDTAVYYCVSRIPTGEYWGQGTQVTVSS", "VL": "QTVVTQEPSLSVSPGGTVTLTCGLNSGSVTSSNYPDWYQQTPGQAPRLLIYNTNSRHSGVPSRFSGSISGNKAALTITGAQPEDEADYYCALYMGSDSVVFGGGTHLTVL", "notes": "it was detected with goat anti-human IgG (Fc); also called mAb 14C7; llama antibody 14C7"}}, "test_in_all_cases": "peptide microarray", "key": {"[1]": {"target": "T1, ApoC3 peptide … G46T (human, thioether (positions not given here); also: cyclic constrained)", "T1 peptide": "ARGWVTDTFSSLK", "in_short": "(§1)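 Peptide microarrays of ApoC3-derived peptides incubated with antibody samples, then stained with goat anti-human IgG (Fc) DyLight680 (1:5000) and anti-HA DyLight800 (1:2000) control. Read-out by fluorescence scanning at intensities 7/7 (red/green); a secondary-only pre-stain checked background, HA frame peptides served as quality control.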"}, "[2]": {"target": "T2, ApoC3 peptide … D45N (human, cyclic constrained)", "T2 peptide": "ARGWVTNGFSSLK", "in_short": "as §1"}, "[3]": {"target": "T3, ApoC3 peptide … S48G (human, not fully specified; cyclic constrained)", "T3 peptide": "ARGWVTDGFGSLK", "in_short": "as §1"}, "[4]": {"target": "T4, ApoC3 peptide … R40D (human, not fully specified (bridges); also: cyclic constrained)", "T4 peptide": "ADGWVTDGFSSLK", "in_short": "as §1"}, "[5]": {"target": "T5, ApoC3 peptide … K51F (human, thioether (positions not given here); also: cyclic constrained)", "T5 peptide": "ARGWVTDGFSSLF", "in_short": "as §1"}, "[6]": {"target": "T6, ApoC3 peptide … W42H (human, not fully specified (bridges); also: cyclic constrained)", "T6 peptide": "ARGHVTDGFSSLK", "in_short": "as §1"}, "[7]": {"target": "T7, ApoC3 peptide … K51S (human, not fully specified; cyclic constrained)", "T7 peptide": "ARGWVTDGFSSLS", "in_short": "as §1"}, "[8]": {"target": "T8, ApoC3 peptide … R40A (human, not fully specified (bridges); also: cyclic constrained)", "T8 peptide": "AAGWVTDGFSSLK", "in_short": "as §1"}, "[9]": {"target": "T9, ApoC3 peptide … G46Q (human, not fully specified (bridges); also: cyclic constrained)", "T9 peptide": "ARGWVTDQFSSLK", "in_short": "as §1"}, "[10]": {"target": "T10, ApoC3 peptide … G46E (human, not fully specified (bridges); also: cyclic constrained)", "T10 peptide": "ARGWVTDEFSSLK", "in_short": "as §1"}, "[11]": {"target": "T11, ApoC3 peptide … G46F (human, not fully specified (bridges); also: cyclic constrained)", "T11 peptide": "ARGWVTDFFSSLK", "in_short": "as §1"}, "[12]": {"target": "T12, ApoC3 peptide … S49W (human, not fully specified (bridges); also: cyclic constrained)", "T12 peptide": "ARGWVTDGFSWLK", "in_short": "as §1"}, "[13]": {"target": "T13, ApoC3 peptide … A39Q (human, not fully specified (bridges); also: cyclic constrained)", "T13 peptide": "QRGWVTDGFSSLK", "in_short": "as §1"}, "[14]": {"target": "T14, ApoC3 peptide … T44A (human, not fully specified (bridges); also: cyclic constrained)", "T14 peptide": "ARGWVADGFSSLK", "in_short": "as §1"}, "[15]": {"target": "ApoC3 peptide … S48T (human, cyclic constrained)", "in_short": "as §1"}, "[16]": {"target": "T15, ApoC3 peptide … D45S (human, cyclic constrained)", "T15 peptide": "ARGWVTSGFSSLK", "in_short": "as §1"}, "[17]": {"target": "T16, ApoC3 peptide … R40E (human, not fully specified (bridges); also: cyclic constrained)", "T16 peptide": "AEGWVTDGFSSLK", "in_short": "as §1"}, "[18]": {"target": "T17, ApoC3 peptide … D45Q (human, cyclic constrained)", "T17 peptide": "ARGWVTQGFSSLK", "in_short": "as §1"}, "[19]": {"target": "T18, ApoC3 peptide … D45L (human, cyclic constrained)", "T18 peptide": "ARGWVTLGFSSLK", "in_short": "as §1"}, "[20]": {"target": "T19, ApoC3 peptide … F47Q (human, not fully specified (bridges); also: cyclic constrained)", "T19 peptide": "ARGWVTDGQSSLK", "in_short": "as §1"}, "[21]": {"target": "T20, ApoC3 peptide … V43M (human, not fully specified; cyclic constrained)", "T20 peptide": "ARGWMTDGFSSLK", "in_short": "as §1"}, "[22]": {"target": "T21, ApoC3 peptide … G46A (human, also: cyclic constrained)", "T21 peptide": "ARGWVTDAFSSLK", "in_short": "as §1"}, "[23]": {"target": "T22, ApoC3 peptide … V43R (human, not fully specified (bridges); also: cyclic constrained)", "T22 peptide": "ARGWRTDGFSSLK", "in_short": "as §1"}, "[24]": {"target": "T23, ApoC3 peptide … D45V (human, cyclic constrained)", "T23 peptide": "ARGWVTVGFSSLK", "in_short": "as §1"}, "[25]": {"target": "T24, ApoC3 peptide … W42Q (human, not fully specified (bridges); also: cyclic constrained)", "T24 peptide": "ARGQVTDGFSSLK", "in_short": "as §1"}, "[26]": {"target": "T25, ApoC3 peptide … L50Y (human, not fully specified (bridges); also: cyclic constrained)", "T25 peptide": "ARGWVTDGFSSYK", "in_short": "as §1"}, "[27]": {"target": "T26, ApoC3 peptide … F47T (human, also: cyclic constrained)", "T26 peptide": "ARGWVTDGTSSLK", "in_short": "as §1"}, "[28]": {"target": "T27, ApoC3 peptide … K51N (human, not fully specified; cyclic constrained)", "T27 peptide": "ARGWVTDGFSSLN", "in_short": "as §1"}, "[29]": {"target": "T28, ApoC3 peptide … K51M (human, not fully specified; cyclic constrained)", "T28 peptide": "ARGWVTDGFSSLM", "in_short": "as §1"}, "[30]": {"target": "T29, ApoC3 peptide … G46D (human, also: cyclic constrained)", "T29 peptide": "ARGWVTDDFSSLK", "in_short": "as §1"}, "[31]": {"target": "ApoC3 peptide … S48V (human, cyclic constrained)", "in_short": "as §1"}}, "note": "Ends that are not written are not given here."}
{"binder": "B1", "values": [{"measurement": "% of binding to wild-type peptide", "setting": "[1]", "result": 0, "unit": "%"}, {"measurement": "% of binding to wild-type peptide", "setting": "[2]", "result": 4.85, "unit": "%"}, {"measurement": "% of binding to wild-type peptide", "setting": "[3]", "result": 3.7, "unit": "%"}, {"measurement": "% of binding to wild-type peptide", "setting": "[4]", "result": 50, "unit": "%"}, {"measurement": "% of binding to wild-type peptide", "setting": "[5]", "result": 6.24, "unit": "%"}, {"measurement": "% of binding to wild-type peptide", "setting": "[6]", "result": 48.6, "unit": "%"}, {"measurement": "% of binding to wild-type peptide", "setting": "[7]", "result": 27.5, "unit": "%"}, {"measurement": "% of binding to wild-type peptide", "setting": "[8]", "result": 50.1, "unit": "%"}, {"measurement": "% of binding to wild-type peptide", "setting": "[9]", "result": 0, "unit": "%"}, {"measurement": "% of binding to wild-type peptide", "setting": "[10]", "result": 0, "unit": "%"}, {"measurement": "% of binding to wild-type peptide", "setting": "[11]", "result": 0.86, "unit": "%"}, {"measurement": "% of binding to wild-type peptide", "setting": "[12]", "result": 0.27, "unit": "%"}, {"measurement": "% of binding to wild-type peptide", "setting": "[13]", "result": 104, "unit": "%"}, {"measurement": "% of binding to wild-type peptide", "setting": "[14]", "result": 0, "unit": "%"}, {"measurement": "% of binding to wild-type peptide", "setting": "[15]", "result": 88.3, "unit": "%"}, {"measurement": "% of binding to wild-type peptide", "setting": "[16]", "result": 20.8, "unit": "%"}, {"measurement": "% of binding to wild-type peptide", "setting": "[17]", "result": 76.9, "unit": "%"}, {"measurement": "% of binding to wild-type peptide", "setting": "[18]", "result": 21, "unit": "%"}, {"measurement": "% of binding to wild-type peptide", "setting": "[19]", "result": 17.1, "unit": "%"}, {"measurement": "% of binding to wild-type peptide", "setting": "[20]", "result": 0, "unit": "%"}, {"measurement": "% of binding to wild-type peptide", "setting": "[21]", "result": 20.9, "unit": "%"}, {"measurement": "% of binding to wild-type peptide", "setting": "[22]", "result": 0, "unit": "%"}, {"measurement": "% of binding to wild-type peptide", "setting": "[23]", "result": 15.1, "unit": "%"}, {"measurement": "% of binding to wild-type peptide", "setting": "[24]", "result": 1.21, "unit": "%"}, {"measurement": "% of binding to wild-type peptide", "setting": "[25]", "result": 93.1, "unit": "%"}, {"measurement": "% of binding to wild-type peptide", "setting": "[26]", "result": 0.38, "unit": "%"}, {"measurement": "% of binding to wild-type peptide", "setting": "[27]", "result": 0, "unit": "%"}, {"measurement": "% of binding to wild-type peptide", "setting": "[28]", "result": 2.6, "unit": "%"}, {"measurement": "% of binding to wild-type peptide", "setting": "[29]", "result": 11.1, "unit": "%"}, {"measurement": "% of binding to wild-type peptide", "setting": "[30]", "result": 0, "unit": "%"}, {"measurement": "% of binding to wild-type peptide", "setting": "[31]", "result": 45.3, "unit": "%"}]}
